The results in this text go back to article doi:10.1101/2023.08.11.553045 (bioRxiv, 2023).

The chains are these.
B1: STING cytosolic domain (hSTING CTD lacking CTT3, aa 137-366) (domain or fragment)
chain: KGLAPAEISAVCEKGNFNVAHGLAWSYYIGYLRLILPELQARIRTYNQHYNNLLRGAVSQRLYILLPLDCGVPDNLSMADPNIRFLDKLPQQTGDHAGIKDRVYSNSIYELLENGQRAGTCVLEYATPLQTLFAMSQYSQAGFSREDRLEQAKLFCRTLEDILADAPESQNNCRLIAYQEPADDSSFSLSQEVLRHLRQEEKEEVTVGSLKTSAVPSTSTMSQEPELLIS

Series [1] has as its target STING cytosolic domain (hSTING CTD lacking CTT3, aa 137-366) (human) (UniProt Q86WV6). Kind of series: MST.
The target of a further series is STING-R284S CTD (human, UniProt Q86WV6 137-366, R284S). Kind of series: NMR titration.
The target of series [2] is B1. Kind of series: NMR titration.
For series [3], the target named is B1. Kind of series: MST.
The series “SEC” concerns the molecule itself. Kind of series: SEC.

Where no end group is shown, it is not given here.

Take CTT8 peptide (MFEKPLPL): in series [1], the fold enhancement of affinity over CTT7 was found to be 2.7 fold.
Take MEKPLPL (also: 15N isotopically labelled amino acids) [15N-labelled CTT7]: the binding result (with STING-R284S CTD; in series [2]) was “binds” each time.
As to MEKPLPL [CTT7 peptide (unlabelled)], in series [3], the Kd was found to be 10.7 µM. This lies in the double-digit micromolar range.
As to B1, the binding result in “SEC” was “binds”.
